B1: ARL6IP1 (parent)
chain: YLDPSVLSGVSCFVMFLCLADYLV
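Note: lentivirally expressed fusions sorted by FACS into six bins by GFP to DsRed ratio, PSI derived from sequencing read proportions per bin multiplied by bin number.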

This data set covers variants of B1. The experiment in a line: protein stability index of a GFP-peptide fusion (GPS, HEK-293T) (PSI 1-6); higher = more stable. As to conditions: c terminus: a fixed tail appended.
Take YLDPRVLSGVSCFVMFLCLADYLV [S5R]: the protein stability index came out at 3.56.

YLDPDVLSGVSCFVMFLCLADYLV [S5D]: the protein stability index worked out at 3.07.

Regarding YLDPIVLSGVSCFVMFLCLADYLV [S5I], the protein stability index came to 3.61.

Take YLDPMVLSGVSCFVMFLCLADYLV [S5M]: the protein stability index is 3.03.

As to YLDPLVLSGVSCFVMFLCLADYLV [S5L], the protein stability index amounted to 3.09.

For YLDPGVLSGVSCFVMFLCLADYLV [S5G], the protein stability index came to 3.63.

With YLDPKVLSGVSCFVMFLCLADYLV [S5K], the protein stability index is 3.47.

Take YLDPPVLSGVSCFVMFLCLADYLV [S5P]: the protein stability index was determined as 3.19.

Turning to YLDPNVLSGVSCFVMFLCLADYLV [S5N], the protein stability index was determined as 2.26.

For the variant YLDPHVLSGVSCFVMFLCLADYLV [S5H], the protein stability index amounted to 3.5.

Turning to YLDPSVLSLVSCFVMFLCLADYLV [G9L], the protein stability index is 3.4.

In the case of YLDPSVLSHVSCFVMFLCLADYLV [G9H], the protein stability index worked out at 3.27.

On to YLDPSVLSSVSCFVMFLCLADYLV [G9S], for which the protein stability index came out at 2.12.

For YLDPSVLSEVSCFVMFLCLADYLV [G9E], the protein stability index is 2.77.

For YLDPSVLSKVSCFVMFLCLADYLV [G9K], the protein stability index turned out to be 2.49.

Take YLDPSVLSQVSCFVMFLCLADYLV [G9Q]: the protein stability index was determined as 3.72.

YLDPSVLSRVSCFVMFLCLADYLV [G9R]: the protein stability index is 2.5.

Regarding YLDPSVLSVVSCFVMFLCLADYLV [G9V], the protein stability index was 3.3.

As for YLDPSVLSFVSCFVMFLCLADYLV [G9F], the protein stability index came out at 3.27.

On to YLDPSVLSAVSCFVMFLCLADYLV [G9A], for which the protein stability index turned out to be 3.74.

Regarding YLDPSVLSPVSCFVMFLCLADYLV [G9P], the protein stability index was found to be 2.66.

With YLDPSVLSNVSCFVMFLCLADYLV [G9N], the protein stability index came out at 4.26.

In the case of YLDPSVLSYVSCFVMFLCLADYLV [G9Y], the protein stability index turned out to be 2.81.

Regarding YLDPSVLSTVSCFVMFLCLADYLV [G9T], the protein stability index stood at 3.03.

As to YLDPSVLSGTSCFVMFLCLADYLV [V10T], the protein stability index was determined as 1.56.

Consider YLDPSVLSGPSCFVMFLCLADYLV [V10P], for which the protein stability index worked out at 3.06.

As to YLDPSVLSGSSCFVMFLCLADYLV [V10S], the protein stability index is 3.4.

Take YLDPSVLSGASCFVMFLCLADYLV [V10A]: the protein stability index was found to be 3.22.

For the variant YLDPSVLSGYSCFVMFLCLADYLV [V10Y], the protein stability index is 2.38.

On to YLDPSVLSGFSCFVMFLCLADYLV [V10F], for which the protein stability index worked out at 3.19.

As to YLDPSVLSGISCFVMFLCLADYLV [V10I], the protein stability index is 3.18.

Take YLDPSVLSGHSCFVMFLCLADYLV [V10H]: the protein stability index stood at 2.26.

Consider YLDPSVLSGDSCFVMFLCLADYLV [V10D], for which the protein stability index amounted to 2.93.

In the case of YLDPSVLSGWSCFVMFLCLADYLV [V10W], the protein stability index was determined as 2.21.

For YLDPSVLSGESCFVMFLCLADYLV [V10E], the protein stability index amounted to 2.67.

With YLDPSVLSGCSCFVMFLCLADYLV [V10C], the protein stability index amounted to 2.61.

Consider YLDPSVLSGLSCFVMFLCLADYLV [V10L], for which the protein stability index amounted to 2.97.

For the variant YLDPSVLSGNSCFVMFLCLADYLV [V10N], the protein stability index amounted to 3.52.

As to YLDPSVLSGQSCFVMFLCLADYLV [V10Q], the protein stability index is 2.89.

As for YLDPSVLSGMSCFVMFLCLADYLV [V10M], the protein stability index was 2.44.

Consider YLDPSVLSGKSCFVMFLCLADYLV [V10K], for which the protein stability index came out at 2.46.

In the case of YLDPSKLSGVSCFVMFLCLADYLV [V6K], the protein stability index was determined as 2.51.

In the case of YLDPSDLSGVSCFVMFLCLADYLV [V6D], the protein stability index amounted to 2.36.

As to YLDPSCLSGVSCFVMFLCLADYLV [V6C], the protein stability index is 3.38.

Consider YLDPSYLSGVSCFVMFLCLADYLV [V6Y], for which the protein stability index came out at 2.66.

On to YLDPSILSGVSCFVMFLCLADYLV [V6I], for which the protein stability index worked out at 3.23.

Consider YLDPSALSGVSCFVMFLCLADYLV [V6A], for which the protein stability index amounted to 1.44.

Take YLDPSSLSGVSCFVMFLCLADYLV [V6S]: the protein stability index was 2.79.

As for YLDPSTLSGVSCFVMFLCLADYLV [V6T], the protein stability index was 2.39.

For YLDPSQLSGVSCFVMFLCLADYLV [V6Q], the protein stability index was 2.64.

For YLDPSRLSGVSCFVMFLCLADYLV [V6R], the protein stability index turned out to be 2.76.

For YLDPSNLSGVSCFVMFLCLADYLV [V6N], the protein stability index stood at 3.08.

Consider ALDPSVLSGVSCFVMFLCLADYLV [Y1A], for which the protein stability index was found to be 1.59.

As for DLDPSVLSGVSCFVMFLCLADYLV [Y1D], the protein stability index was determined as 2.61.

With ILDPSVLSGVSCFVMFLCLADYLV [Y1I], the protein stability index is 2.63.

As to RLDPSVLSGVSCFVMFLCLADYLV [Y1R], the protein stability index came to 2.81.

As to NLDPSVLSGVSCFVMFLCLADYLV [Y1N], the protein stability index was found to be 4.11.

As for CLDPSVLSGVSCFVMFLCLADYLV [Y1C], the protein stability index is 3.1.

For VLDPSVLSGVSCFVMFLCLADYLV [Y1V], the protein stability index was 2.9.

In the case of HLDPSVLSGVSCFVMFLCLADYLV [Y1H], the protein stability index came to 3.89.

Consider MLDPSVLSGVSCFVMFLCLADYLV [Y1M], for which the protein stability index amounted to 3.37.

In the case of YLPPSVLSGVSCFVMFLCLADYLV [D3P], the protein stability index was found to be 3.06.

For YLHPSVLSGVSCFVMFLCLADYLV [D3H], the protein stability index turned out to be 1.69.

As to YLRPSVLSGVSCFVMFLCLADYLV [D3R], the protein stability index is 3.64.

With YLAPSVLSGVSCFVMFLCLADYLV [D3A], the protein stability index was 5.08.

YLYPSVLSGVSCFVMFLCLADYLV [D3Y]: the protein stability index worked out at 2.54.

Regarding YLIPSVLSGVSCFVMFLCLADYLV [D3I], the protein stability index was 2.83.

For the variant YLVPSVLSGVSCFVMFLCLADYLV [D3V], the protein stability index was determined as 2.91.

As to YLEPSVLSGVSCFVMFLCLADYLV [D3E], the protein stability index was 1.94.

With YLTPSVLSGVSCFVMFLCLADYLV [D3T], the protein stability index is 2.59.

For YLSPSVLSGVSCFVMFLCLADYLV [D3S], the protein stability index came to 2.72.

Turning to YLNPSVLSGVSCFVMFLCLADYLV [D3N], the protein stability index came out at 3.7.

As to YLQPSVLSGVSCFVMFLCLADYLV [D3Q], the protein stability index amounted to 3.57.

As to YLDCSVLSGVSCFVMFLCLADYLV [P4C], the protein stability index stood at 3.21.

As to YLDISVLSGVSCFVMFLCLADYLV [P4I], the protein stability index is 2.66.

In the case of YLDMSVLSGVSCFVMFLCLADYLV [P4M], the protein stability index was determined as 3.45.

Consider YLDKSVLSGVSCFVMFLCLADYLV [P4K], for which the protein stability index was found to be 2.63.

Regarding YLDNSVLSGVSCFVMFLCLADYLV [P4N], the protein stability index was found to be 2.9.

Consider YLDGSVLSGVSCFVMFLCLADYLV [P4G], for which the protein stability index worked out at 3.42.

Turning to YLDLSVLSGVSCFVMFLCLADYLV [P4L], the protein stability index is 2.76.

Consider YLDVSVLSGVSCFVMFLCLADYLV [P4V], for which the protein stability index worked out at 3.33.

As for YLDDSVLSGVSCFVMFLCLADYLV [P4D], the protein stability index amounted to 3.12.

In the case of YHDPSVLSGVSCFVMFLCLADYLV [L2H], the protein stability index is 2.67.

As for YTDPSVLSGVSCFVMFLCLADYLV [L2T], the protein stability index worked out at 3.75.

Regarding YEDPSVLSGVSCFVMFLCLADYLV [L2E], the protein stability index was 3.04.

YYDPSVLSGVSCFVMFLCLADYLV [L2Y]: the protein stability index amounted to 2.35.

Turning to YNDPSVLSGVSCFVMFLCLADYLV [L2N], the protein stability index was found to be 2.5.

YIDPSVLSGVSCFVMFLCLADYLV [L2I]: the protein stability index stood at 1.63.

With YFDPSVLSGVSCFVMFLCLADYLV [L2F], the protein stability index was determined as 3.

Regarding YADPSVLSGVSCFVMFLCLADYLV [L2A], the protein stability index was found to be 2.29.

Regarding YPDPSVLSGVSCFVMFLCLADYLV [L2P], the protein stability index is 2.76.

Take YRDPSVLSGVSCFVMFLCLADYLV [L2R]: the protein stability index was determined as 2.5.

Turning to YDDPSVLSGVSCFVMFLCLADYLV [L2D], the protein stability index is 3.95.

For the variant YKDPSVLSGVSCFVMFLCLADYLV [L2K], the protein stability index came to 3.31.

(Values after the supplement of paper PMC10567573.)
